Experimental data taken from a protein production outcome set (Wang et al. 2014).

Assay: label from the status in PepcDB records
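Further: failed if final PepcDB status was selected cloned or expressed and not failed if soluble or beyond.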

Sequence	protein production
MPIKKNSHVKTTEMNKYPVLQLKRDPEAIHHYLNGEIRILVPTEYQRIKNEISQKRHRTLFDVLMITGMRYVEVQRLWDHKEWYLKKKNIIHLPEEAQKKHKRTQQERTIHPLPGMFELLLDDFFEARKPPAESNWNRDLRKWAKDAGLNPYGLSAKTTRKTLESWCIAAGMLESTVCLRQGHDNLTSMKHYQGLAFSADELKDIEKQLTVWGMLK	failed
MPIKVKYYGNVVFASDAVCGQAENYATLKAMKEVGNYTISIQTFENAENVYPEEFLAKPVADEHYLTTEDGSVGIKGHYLDIVKELIEKDKVDIIFAGGKLGSLAKLAELTRPYGIPTLEHHHHHH	failed
MPIPKSAKSDYTKEQKDLVGNICQCKDFYKILNVDKKASPDEIRIAFRKRIREVHPDKCKHPSATEASKVVNNAFSLLMDPAKRRQYDLQ	not failed
MPIPLEKQNKERRQKILTCSLDLFIEKGYYNTSIRDIIALSEVGTGTFYNYFVDKEDILKNLLEDFAKQIISSISEYYLVEKDLYERFIETKRLTMEVFAQNETLSEIYSRVAGSSAPIDQCLKQFEDRLLEFYSRNIEYGIKKGVFKNVPVSPIAHSILAIEKFSLYKWVVLKAITKEEMIEMVLSFHKTLAVGLLVVND	not failed
MPIVVFHKGDETFTDEVKDNTNLVVRAGIKQFPYPNLRYQCGMGKCATCACRILAGGEHLPEPNWKEKKQLGDRLAQGYRLACQLWITHDIELRQDAAAPAGGGD	failed
MPKASDIKKGSAIEHNGKVFFVKEISKLTPSGRAGATLFRMRMYDVATGAKSDESFKADDMINLADFSRRSATFSYVDGNEYVFMDSEDYTPYNFNKEAIEEELLFITEETQGLQILIVDGAPVAIELPSAVDLEIVETAPSIKGASASARTKPATMTTGLTVQVPEYIANGEKVKINTTEHKFMSRALEHHHHHH	failed
MPKEQPLYLQIVDDLEVKIKKSMTENDKLLSERELSDLYGVSRITIRLTLKELELRDLIYKKQGKGTYVSGIKEPATDLSSTYSFTEQMKKMGKTPKTEILSFEQYQVTPYLSGLLELDPDTEVFELERLRIADDMPLMFERSYIPAQPFQGLSIADLKRKALYDIFAKDYQETIRLAEEEFYASIALDYEAGLLGIKKGDPVLHIIRKTYNDKNILIELTFSIARADQFRYRVQHHPNG	failed
MPKIAKELSALEVKRLTCRIDPETGEATEVRYPVGGVSGLLLRITPSGSRQWILRAKVGNRRPDMGLGPYPEISLAQARDKAREMKEKIRSGIDPLEEKRTLKRALLAEQISTLTFQKAMEKYIKMKAKEFRNPRQEKQWTNSLNTYAIPHLGKLPVREIDLPHIKQVLDPIWETKTETANRVRARIENILGWCAIHGYRSAENPARWQGYLDEVYPSPEKIKKRGHFAALPVDDMPEFMRDLKKRTGTAARALEFLILTASRTNEVIGDKRIGKAGVTWQEIDLARKVWTVPADRMKSEKIHRVPLTDSAIELLKGMGEGSPEDLIFPGPKGGIPSNNFLTALLKRMERPITAHGFRSTFKDWARERTAYADEVSELALAHVNSDATRAAYARSELIDKRRLMMADWEQFCMHGETKKESGKVVAIGEGKG	failed
MPKIIEAIYENGVFKPLQKVDLKEGERIKLRIEEGILDVIKKYQGKFKLTEKDIEKFLEERRLEHHHHHH	not failed
MPKKGSDPVWCVVMFDLPVKTKTQRKQATAFRQNLLDLGFCMAQLSVYVQYLPLAAKLSNLVKLIKEKLPPGGDVRILSVSDIQWSKMIRFSSSAEVSGEEKPDQLAIFLEHHHHHH	not failed
MPKKRENRGRRKGDKGHVGYISCDQCGARVPEDKAVCVTKMYSPVDASLASELEKKGAIIARYPVTKCYCVNCAVFLGIIKIRAENERKQKARLRLEHHHHHH	failed
MPKLDLDSIERRIGSVYPGRLNAAMDGRSSLRLGDAGGLSQFGVNLVRLEPGAKSSLRHYHMEQDEFVMVTEGALVLVDDQGEHPMVPGDCAAFPAGDPNGHQFVNRTDAPATFLVVGTRTPTETAYYSDMDMMVKQDASGFAFTRKDGSPLTADQIGDDNE	not failed
MPKLDRYLLSDFTQSFLATLIVLLVVSVGGVLVDILGNIADGRIPARLLLSQVGLQFVAYLPIILPLALMLGLLLALARLYRDSEMAVITAIGVGPTRMLRPLLMLVVPVVVVIGLCSLWLGPWASRTAEAMLEDANRSVLMAGLESGQFTPLSDGGVVYMQTISADGKGLGKIFLQRQQNDRIDVVTADRGALFFEGKTDRYLHLDDGYRTEGPAGGATLDYRLMKFASSDIALPDRTRLHDANDPEVMWTTQLLSDERPAARAQLHERLAPPLLALAFAMLTLPLSRSAPRQQRYGRIMLAFLAYMVGTNLMIVGTQWIANGKAPAALGLWWLTLPLLAVAVWAYARDGRVRRPRARA	failed
MPKPGILKSKSMFCVIYRSSKRDQTYLYVEKKDDFSRVPEELMKGFGQPQLAMILPLDGRKKLVNADIEKVKQALTEQGYYLQLPPPPEDLLKQHLSVMGQKTDDTNK	not failed
MPKSVRAENISRILKRIMKSPVSRVELAEELGLTKTTVGEIAKIFLEKGIVVEEKDSPKGVGRPTKSLKISPNCAYVLGIEVTRDEIAACLIDASMNILAHEAHPLPSQSDREETLNVMYRIIDRAKDMMEKLGSKLSALTVAAPGPIDTERGIIIDPRNFPLSQIPLANLLKEKYGIEVWVENDADMGAVGEKWYTKRDDSFAWILTGKGIGAGIIIDGELYRGENGYAGEIGYTRVFNGNEYVFLEDVCNENVVLKHVLSMGFSSLAEARDSGDVRVKEYFDDIARYFSIGLLNLIHLFGISKIVIGGFFKELGENFLKKIKIEVETHLLYKHSVDMSFSKVQEPVIAFGAAVHALENYLERVTTS	not failed
MPKTSHPFQLSLLALAVSAVLVSGCNSSDNDDDLATEAQVTGLTLEFAGRYSTGQFDESAAEITAFDPASRRAFVVNALSGAVDVLDMSDPVNPAKIDTLTVADIAADAVVNSVAVANGLVAVAVESNPKTDPGYVAVFGAADLQLRDSIQVGAQPDMVTFTPDGQYVLAANEGEPSDDYQVDPEGSISVVDVSNPASLTVRIADFLAFNSQESDLKASGVRIYGPGATVAQDLEPEYITVSADSRAAWVSLQENNALAKLDIDTATVTGILPLGFKDYGVEGQGIDASDDDGVINIQRWPGVVGIYHPDAIDSYQANGETFIVTANEGDARAWGEDDADYWNGDSSRGFVEELRVKHLVHPDGFARRIGDDMPSQLTALAEGALLNPSVFDYCGATAGAANACRDDDQLGRLNISWVQGYRVDENGAPVMFNASGAEDPDGTLLMYDQLYSYGTRSLAIWNEDGELVWDSGDAIEQFLASEDCRLGTARSIPCSDHFNSAHDEGMAFDSRSDAKGPEPEAVTVATFGNKTFAFLGLERMGGILVYDVTDPASPVQVDYLNTRDDWTTVDTASVLETAGDLGVESITVVAADDSPTGEPLLITGNEVSGTTAIYRVKLELTD	failed
MPKVYNSIVVDAPVERVWSRIRNFHDFSWAPSLIKSCKKVGGGGGYSVGARRLLNGEFLDTLIAYSEIERRIMYSMDEGPSPVSSGEIYNYVGNLHLLPVTIDDTTFVEWSGSWESASTEAVEYMNTVYRSLLADLAAEFTSESRRSEWIDQLEHHHHHH	not failed
MPLASGQVFAGFTIVRLVGTGGMGEVYLAKHPRLPREDALKVLPISVSADDEFRQRFIREADMAATLWHPHIVGVHDRGEFEGRLWISMDYVDGHDAARLLHDKYPKGMPADDVVEIVTAVGDALDYAHQRQLLHRDVKPANILVTEKHGTKRRIMLTDFGIARRTDDVNGLTSTNITVGSMSYTSPEQLMGQPLDGRADQYSLAATAYRLLTGAPPFSHSNPAVVISHHLNSPPPKLGDTKPALAKLDSVMAKALAKDAKDRFDTCHDFAVALAEANKGDESAAPVTAAPPPVITPPVQTAPPTTPLKAQTLPAPPTPPTPLSPSNPQAPTASQPPVFTSSWAGHDDPSGRQPVAVPAPAPPPPPPPSNFGPPPPAYSPPPRKSGGDRRKLIIAAAAIGAVVLLVGGITLAVTSGGDNDSAGAAATTSETASETPVTTTPKKPGEHAYTIADYIRDNKISETPVHRGDPNTPELTMPTPPGWADAGTRTPAWAYSAIVNDPASPTDPPSVISLISKLDGNVDPEKLLEFAPNELQNLTEWEPIGGVTRSNLSGFPSVQLGGSYLKDGKRRAITQKTVVVDIPSGIYVLQINADSLYRDFGALVDVNKAIDKEATIKP	failed
MPLHPTSQDCVVEQSVDALRERERRFRMLADNMSQLAWTASPRGQVQWYNERWYAYTGATLEAMVALGWRSVVHPEHRERVMARLQYCFATGSVWEDTFALRGKDGAFNWFLSRALPMRDAQGHITHWLGTHTDITAQVNAEEALRELNESLELRVAERTRELAKANELLQVEIAERAQAEEVLRHAQKMDAIGQLTGGIAHDFNNMLSGVLGALDMIRLRIGAQRFGEVDRYVDAAVSSANRAAALTQRLLTFARRQSLSVGTVDINCMVRSMEELLRGTVGNHAQLHIELEEGLSAIQTDEHQLENALLNLVINARDAVPVAGLISVRSQALRLVAQEGALAAGDYVRLSVEDNGCGIAQDVIDRVFDPFFTTKPVGQGTGLGLSMVYGFIKQTGGHVQIKSEQGQGTRICLYLPCGAATA	failed
MPLLFDSQMTPITNSGWRRHWFEIVYRHDTPPSRNFDLLLMSAILGSVLVVMLDSVLILQAHWKYFLYTLEWLFTLIFTADYLIRLVVVQQRLRYVLSIWGIIDLLSILPTYLSLFMPGTQSLLIVRVLRLLRLFRILKMTHYVEESGELIQALWRSRRKVMLFICTVMTIAMIAGATMYVIEGPQHGFTSIPTGMYWAIVTMTTVGFGDITPQSTLGRFVTSALILIGYSIIAVPTGIYTAELTQGLLRSEEEHRHDMRTCPHCGLQGHDHDARYCRNCGGILPQTLHEPNPATQQ	failed
MPLSVGQGYFTSSISSEKFNAIKESARLPELSLWEKIKAYFFTTHHAEALECIFNLYHHQELNLTPVQVRGAYIKLRALASQGCKEQFIIESQEHADKLIIKDDNGENILSIEVECHPEAFGLAKEINKSHPKPKNISLGDITRLVFFGDSLSDSLGRMFEKTHHILPSYGQYFGGRFTNGFTWTEFLSSPHFLGKEMLNFAEGGSTSASYSCFNCIGDFVSNTDRQVASYTPSHQDLAIFLLGANDYMTLHKDNVIMVVEQQIDDIEKIISGGVNNVLVMGIPDLSLTPYGKHSDEKRKLKDESIAHNALLKTNVEELKEKYPQHKICYYETADAFKVIMEAASNIGYDTENPYTHHGYVHVPGAKDPQLDICPQYVFNDLVHPTQEVHHCFAIMLESFIAHHYSTE	failed
MPLTDTALKALKPRDRIYSVADERGLSVEVYPTGGIVWRFRYRLAGRYEKLTLGKYPALSLRNARLKRDEAASLVAMGTSPARQKQLAKVTAADAMTVRDFAERFFREIQSRDRKDSTMPRRYLDKDILPFVGDKPMREVTAEEIRSLIWRKKEQGFDATAGQIRGVLKRLCDYAVTCGLMPTNPVLALPMRHVYKAVSRDRALSPDEIRLFLRAVWASRIRRQFKLALHLILLTMVRKSELLLARWDHVHLDQAQWHIPAEHSKTGKPHIVYLSRQAVVLFEALRVLAGGSALVMPGSGTLTRPFAHNALNHALGKAMQWQGIHAFTIHDLRRTASTWLHEHGWASDVVEKALNHSIGGVRGVYNRAEYADQRRQMLQCWADFIEKQLKTDHLLMVCHTELDGAKPGTP	failed
MPLTNHTPEDRVQDIFDHIAPQYDQMNSVISLGTHHWWRQRVMQAMTLHAGDFALDVCCGTGDWTIALAQAVGPAGHVVGFDFSGVMLQHATTKVRQAQLDDRITLRQGDAMQLPYPDNYFNVVTIGFGLRNVPDATQVLREMARVVKPGGQVVCLETSQPTNPLVHAGWQVYFGHVVPLMGRLAHHYQAYNYLQSSTHHFVSAKELSRLFTAAGLTQVHYDLFNLGAAAVHWGRKPYLEHHHHHH	not failed
MPNAIFFYRIQRWLYLHHIPFLPKLIQLLIFLIYNTKITADSKIGKGSYFVCKGISTVLIPGTEIGENCVLGLRFSTVRKFPYKNVPKIGNNVFIGPNVVICGPVEIGDNCIVAANSFVDKSLRGG	failed
